This series deals with MS2 coat protein. Nature of the series: apparent KD of MS2 coat protein; designed switch direction (-1 OFF switch, 1 ON switch): -1; higher = weaker reporter binding. An outline of the steps: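 Stalled E. coli RNA polymerase transcribed designed RNA switches on Illumina chips, which were then titrated with SNAP-549-labelled MS2 coat protein, doubling from 0.7 or 1.5 nM to 3 µM. Steps lasted from 0.8–1.5 h at the lowest concentration to 10–20 min at the highest. The apparent KD is each design's median over clusters of curve-fitted normalised fluorescence.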

Where [1] appears, read: input ligand: microRNA oligo, concentration not stated.
The mark [2] stands for this setting: Eterna round: R95, input ligand: microRNA oligo, concentration not stated.
Where [3] appears, read: Eterna round: R95, input ligand: FMN 200 uM.
[4] abbreviates: Eterna round: R95, input ligand: none.

Consider “UUGUUAUAUGUAGGAUAUGCAUGUUAUUAUUAUGCAGAAGGACAUGAGGAUCACCCAUGUGUAUUAUUAUUAUAUAUUAUAUAU [Title] (Eterna round: R96, puzzle: Exclusion NG 1)”, for which the “apparent KD of MS2 coat protein” value by setting is: (input ligand: FMN 200 uM) 21.2 nM; under setting [1], 14.1 nM; (input ligand: none) 20.1 nM.

“UUGUUAUGUGUAGGAUAUGCAUAUUAUUAUUAUGCAGAAGGACAUGAGGAUCACCCAUGUGUAUUAUUAUUAUAUAUUAUAUAU [Title] (Eterna round: R96, puzzle: Exclusion NG 1)”: the “apparent KD of MS2 coat protein” value under setting [1] turned out to be 17.2 nM.

With “UUGUUGUAUGUAGGAUAUGCAUAUUAUUAUUAUGCAGAAGGACAUGAGGAUCACCCAUGUAUGUUAUUAUUAUAUGUUAUAUGU [Title] (Eterna round: R96, puzzle: Exclusion NG 1)”, the “apparent KD of MS2 coat protein” value under setting [1] worked out at 25.6 nM.

Consider “UUGUUGUAUGUAGGAUAUGCAUAUUAUUAUUGUGCAGAAGGACAUGAGGAUCACCCAUGUAUAUUAUUAUUAUAUAUUAUAUAU [Title] (Eterna round: R96, puzzle: Exclusion NG 1)”, for which, under setting [1], the “apparent KD of MS2 coat protein” value was determined as 27.2 nM.

For the sequence “UUGUUGUAUGUAGGAUAUGCGUAUUAUUAUUAUGCAGAAGGACAUGAGGAUCACCCAUGUAUAUUAUUAUUAUAUAUUAUAUAU [Title] (Eterna round: R96, puzzle: Exclusion NG 1)”, under setting [1], the “apparent KD of MS2 coat protein” value worked out at 22 nM.

On to “UUGUUUGUAGUGAGGAUAUCGUUGAGGAAGAGGAUCGAGAAGGCACAUGAGGAUCACCCAUGUUAGAUGUGGUU [JR_BMOE4_Sub082] (Eterna round: R96, puzzle: Brourd's mod of Exclusion 4)”, for which the “apparent KD of MS2 coat protein” value (input ligand: FMN 200 uM) amounted to 261 nM, the “apparent KD of MS2 coat protein” value under setting [1] amounted to 114 nM and the “apparent KD of MS2 coat protein” value (input ligand: none) is 161 nM.

In the case of “UUGUUUGUAGUGAGGAUAUCGUUGAGGAAGAGGAUCGAGAAGGCACAUGAGGAUCACCCAUGUUAGAUGUGGUU [JR_BMOE4_Sub082] (puzzle: Brourd's mod of Exclusion 4)”, the “apparent KD of MS2 coat protein” value under setting [2] came to 99.1 nM.

As for “UUUAAUUUUUUUUUUUUACAAGCUUUUUGCUCGUCUUAUACAUGAGGAUCACCCAUGUGAGUGGGAGGUAAAUUAUC [JMF 77] (puzzle: Sensor v3, turn-off variant 2)”, the “apparent KD of MS2 coat protein” value is, setting by setting: under setting [3], 57.7 nM; under setting [2], 276 nM; under setting [4], 70 nM.

“UUUAAUUUUUUUUUUUUACAAGCUUUUUGCUCGUCUUAUACAUGAGGAUCACCCAUGUGGAUGGGAGGUAAAUUAUC [JMF 74] (puzzle: Sensor v3, turn-off variant 2)”: the “apparent KD of MS2 coat protein” value was determined as 25.4 nM under setting [3], 153 nM under setting [2] and 25.3 nM under setting [4].

For “UUUAAUUUUUUUUUUUUACAAGCUUUUUGCUCGUCUUAUACAUGAGGAUCACCCAUGUGGGUGAGAGAUAAAUUAUC [JMF 14] (puzzle: Sensor v3, turn-off variant 2)”, the “apparent KD of MS2 coat protein” value runs as follows: under setting [3], 53.2 nM; under setting [2], 17 nM; under setting [4], 64.2 nM.

Take “UUUACAAGCUAAAGAUCCCACAUGAGGAUCACCCAUGUUCCUGGCCGUGAGGCUAGGUAAACUUUUGCUCGUCUUAU [JL TOV1 3.67] (Eterna round: R97, puzzle: Sensor, turn-off variant 1)”: the “apparent KD of MS2 coat protein” value worked out at 252 nM (input ligand: FMN 200 uM) and 322 nM (input ligand: none).

As for “UUUACAAGCUAUUGAUCCCACAUGAGGAUCACCCAUGUUCCUGGCCGUGAGGCUAGGUAAACAAUAGCUCGUCUUAU [Sensor-V1 #41] (Eterna round: R97, puzzle: Sensor, turn-off variant 1)”, the “apparent KD of MS2 coat protein” value reads like this: (input ligand: FMN 200 uM) 98.4 nM; (input ligand: none) 95.1 nM.

For the sequence “UUUAGUUCAGGAUAUGUAGAUUUUAACAUGAGGAUCACCCAUGUCGAUCCUGAAUUAACUACAGAAGGGAACAUUU [Mod of Brourd 4 - Jieux - Exclusion 5] (Eterna round: R97, puzzle: Exclusion 5)”, the “apparent KD of MS2 coat protein” value by setting is: (input ligand: FMN 200 uM) 64 nM; (input ligand: none) 18.8 nM.

Turning to “UUUAGUUUAGGAUAUGUAGAUUUUAACAUGAGGAUCACCCAUGUAGAUCCUGAAUUAACUACAGAAGGGAGCAUUU [Mod of Brourd 15 - Jieux - Exclusion 5] (Eterna round: R97, puzzle: Exclusion 5)”, the “apparent KD of MS2 coat protein” value runs as follows: (input ligand: FMN 200 uM) 70.5 nM; (input ligand: none) 68.2 nM.

Regarding “UUUAUAUAUGAAGGAUAUACUUAACAUGAGGAUCACCCAUGUGGUGUUGUGAGUGAGUGAGUUUAGUAGAAGGUCAAUUAUUUU [JMF's solution 27] (Eterna round: R96, puzzle: Exclusion NG 2)”, the “apparent KD of MS2 coat protein” value is, setting by setting: (input ligand: FMN 200 uM) 594 nM; under setting [1], 237 nM; (input ligand: none) 310 nM.

Take “UUUAUGUCAGGAUAUGAGUCGUAGAACAAUAGUACUACGUCUCAGAAGGGACAUGAGGAUCACCCAUGUGCCUC [Fiskers Ex 4 Super Stable 44 mod 26] (puzzle: Exclusion 4)”: the “apparent KD of MS2 coat protein” value under setting [2] is 35.7 nM.

As to “UUUAUUAAUUAAUAUAAUAAGAUCACAUGAGGAUCACCCAUGUAGGAUAUCAGCUCGAUUAGAGCUGAGAAGGACAUAAUUAUA [ExNG3/1-B1] (Eterna round: R96, puzzle: Exclusion NG 3)”, under setting [1], the “apparent KD of MS2 coat protein” value worked out at 29.2 nM.

As to “UUUAUUAAUUAAUAUAAUAAGAUCACAUGAGGAUCACCCAUGUAGGAUAUCAGCUCGUGUAGAGCUGAGAAGGACAUAAUUAUA [ExNG3/1-B3] (Eterna round: R96, puzzle: Exclusion NG 3)”, the “apparent KD of MS2 coat protein” value (input ligand: FMN 200 uM) came to 108 nM, the “apparent KD of MS2 coat protein” value under setting [1] was determined as 27 nM and the “apparent KD of MS2 coat protein” value (input ligand: none) is 34.3 nM.

Turning to “UUUCCCUGGCAAGGAUAUCCUGUGCGGUUCCGGCUCGUGUCUGUUACAUGAGGAUCACCCAUGUGGGAGAAGGUGCCUGUGGCU [Design 91] (Eterna round: R96, puzzle: Exclusion NG 2)”, the “apparent KD of MS2 coat protein” value under setting [1] came to 47.4 nM.

As to “UUUCGGCAUGUAGGAUAUGGAUCCGAUUAGGAUUUAGAAGGACAUGAGGAUCACCCAUGUGCAUUUAAUUAGUCAUUACCGUUU [EXclNG1-LROPPY07] (Eterna round: R96, puzzle: Exclusion NG 1)”, the “apparent KD of MS2 coat protein” value is, setting by setting: (input ligand: FMN 200 uM) 79.9 nM; under setting [1], 42.8 nM; (input ligand: none) 67.1 nM.

Turning to “UUUGAAUAGGUAGGAUAUACUUUCAAUUUUCUUUUCCUUACAUGAGGAUCACCCAUGUUUACAUUGUAGAAGGACCUCAUUGAU [JR_ExcNG2_Sub048] (Eterna round: R96, puzzle: Exclusion NG 2)”, the “apparent KD of MS2 coat protein” value under setting [1] worked out at 193 nM.

In the case of “UUUGCAAGCUUAAGAUCCCACAUGAGGAUCACCCAUGUUGCUGCCGUGAGGUAGCAUUUAACUUAUGCUCGUCUUAU [JL TOV1 3.50] (Eterna round: R97, puzzle: Sensor, turn-off variant 1)”, the “apparent KD of MS2 coat protein” value reads like this: (input ligand: FMN 200 uM) 140 nM; (input ligand: none) 176 nM.

Turning to “UUUGUCUGUGUGAGGAUAUACUUUGUUUGGUCGUUGUAGAAGGCACAUGAGGAUCACCCAUGUAUUUUGUUGUG [JR_BME4_Sub015] (puzzle: Brourd's mod of Exclusion 4)”, under setting [2], the “apparent KD of MS2 coat protein” value stood at 26.9 nM.

Turning to “UUUGUCUGUGUGAGGAUAUACUUUUUUUGGUUUUUGUAGAAGGCACAUGAGGAUCACCCAUGUAUUUUGUUGUG [JR_BME4_Sub016] (puzzle: Brourd's mod of Exclusion 4)”, the “apparent KD of MS2 coat protein” value under setting [2] came to 31.1 nM.

For “UUUGUUGUUGUGAGGAUAUCGUUGUUAUUUUGAAACGAGAAGGCACAUGAGGAUCACCCAUGUUUGUUGAUGGU [JR_BMOE4_Sub060] (puzzle: Brourd's mod of Exclusion 4)”, the “apparent KD of MS2 coat protein” value under setting [2] came to 41.5 nM.

For the sequence “UUUGUUUAUGUAGGAUAUGCCUGGCGUGCCUUCGCAGAAGGACAUGAGGAUCACCCAUGUAUUGCGGUCUGCGUUCAGAUCGCU [salish99_ExNG1_r4_030] (Eterna round: R96, puzzle: Exclusion NG 1)”, the “apparent KD of MS2 coat protein” value runs as follows: (input ligand: FMN 200 uM) 46.8 nM; under setting [1], 29.1 nM; (input ligand: none) 41.8 nM.

Regarding “UUUGUUUAUGUGAGGAUAUACUGUUUGUUUUGUUUGUAGAAGGUACAUGAGGAUCACCCAUGUUUUGUAUUUAU [JR_BME4_Sub034] (puzzle: Brourd's mod of Exclusion 4)”, the “apparent KD of MS2 coat protein” value under setting [2] was determined as 18.4 nM.

On to “UUUGUUUUGCAAGGAUAUGUUUAAUUUUAUUUUCCUUACACAUGAGGAUCACCCAUGUUAUUCUUACAGAAGGUGCGUAAUUUG [Excl-NG2-LRO05] (Eterna round: R96, puzzle: Exclusion NG 2)”, for which the “apparent KD of MS2 coat protein” value under setting [1] turned out to be 171 nM.

Take “UUUUAAAAGCUGAGAUCCUACAUGAGGAUCACCCAUGUGGUCCGGAAAAUUUUGUCACCGGAUUUUGCUCGUCUUGU [salish99_S_TOV1_R5_103] (Eterna round: R97, puzzle: Sensor, turn-off variant 1)”: the “apparent KD of MS2 coat protein” value runs as follows: (input ligand: FMN 200 uM) 102 nM; (input ligand: none) 114 nM.

For the sequence “UUUUAACAAGCGAGAUCCUACAUGAGGAUCACCCAUGUAGACCAUGGUUUCCAUGGUCUUUUUGCUCGUCUUGUGUG [jl TITIN mod 6] (Eterna round: R97, puzzle: Sensor, turn-off variant 1)”, the “apparent KD of MS2 coat protein” value reads like this: (input ligand: FMN 200 uM) 22.5 nM; (input ligand: none) 23.3 nM.

Take “UUUUAACAUGAGGAUCACCCAUGUCAGGAUAUGGUAUUUUUUUUUUUUUUUUUUUUUUCCAGAAGGGACAUUUU [My solution] (puzzle: Exclusion 1)”: the “apparent KD of MS2 coat protein” value was 16.5 nM under setting [3], 11.3 nM under setting [2] and 15.9 nM under setting [4].

Regarding “UUUUAACAUGAGGAUCACCCAUGUGAGGAUAUCGAAAUUUAUAUUAAUAUUAAUAAAACGAGAAGGCACAUUUU [JMF 4] (puzzle: Exclusion 1)”, the “apparent KD of MS2 coat protein” value under setting [2] was 75.1 nM.

In the case of “UUUUAACAUGAGGAUCACCCAUGUGAGGAUAUCGAAAUUUAUAUUAAUAUUUAUUAAACGAGAAGGCACAUUUU [JMF 59] (puzzle: Exclusion 1)”, under setting [2], the “apparent KD of MS2 coat protein” value worked out at 82 nM.

(Values after the supplement of paper PMC9170038.)
